Consider one molecule from patent US20150252117A1 (Genentech, published 2015).

In general, Kd refers to a measure of binding affinity in units of concentration. A high value points to a looser complex. Usually koff stands for the rate constant with which the complex falls apart. The low end stands for slow dissociation, the high end for fast dissociation. The term kon denotes a measure of how fast the partners come together.

One assay addresses T1, Human Jag1-DSL-EGF1-4 (human, UniProt P78504 34-377).
T1 construct: Secreted protein from BEVS cells; also called human Jagged1; hJag1; not shown: TEV protease cleavage site and 6-His tag at the C-terminus
The assay can be described thus: SPR (BIAcore-3000), IgG captured, Jag DSL-EGF1-4 as analyte, 25 C.

The target of another assay is T2, Human Jag2-DSL-EGF1-4 (human, UniProt Q9Y219 24-388).
T2 construct: also called human Jagged2; hJag2
T2 sequence: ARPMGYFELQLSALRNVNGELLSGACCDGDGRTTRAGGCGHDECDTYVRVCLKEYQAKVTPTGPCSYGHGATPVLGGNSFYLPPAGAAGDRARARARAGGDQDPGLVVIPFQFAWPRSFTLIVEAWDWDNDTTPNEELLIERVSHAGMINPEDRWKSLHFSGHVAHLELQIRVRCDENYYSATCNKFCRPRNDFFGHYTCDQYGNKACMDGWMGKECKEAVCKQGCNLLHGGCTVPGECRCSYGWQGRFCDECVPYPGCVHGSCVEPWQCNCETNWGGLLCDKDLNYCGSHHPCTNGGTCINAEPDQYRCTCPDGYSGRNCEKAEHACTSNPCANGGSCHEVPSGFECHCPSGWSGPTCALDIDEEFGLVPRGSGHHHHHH
As to the kind of experiment: ELISA on human Jagged2 (Jag-2 bars), OD450 nm. (In general: In an ELISA, binding on a coated surface is turned into a signal by an enzyme label.)

Another assay concerns the target T3, Murine Jag1-DSL-EGF1-4 (mouse, UniProt Q9QXX0 34-377).
T3 construct: also called murine Jagged1; mouse Jagged1
As to the kind of experiment: ELISA (screening, FIG. 8).

The target of a further assay is T4, Murine Jag2-DSL-EGF1-4 (mouse, UniProt Q9QYE5 27-388).
T4 construct: also called murine Jagged2; Mouse Jag2
T4 sequence: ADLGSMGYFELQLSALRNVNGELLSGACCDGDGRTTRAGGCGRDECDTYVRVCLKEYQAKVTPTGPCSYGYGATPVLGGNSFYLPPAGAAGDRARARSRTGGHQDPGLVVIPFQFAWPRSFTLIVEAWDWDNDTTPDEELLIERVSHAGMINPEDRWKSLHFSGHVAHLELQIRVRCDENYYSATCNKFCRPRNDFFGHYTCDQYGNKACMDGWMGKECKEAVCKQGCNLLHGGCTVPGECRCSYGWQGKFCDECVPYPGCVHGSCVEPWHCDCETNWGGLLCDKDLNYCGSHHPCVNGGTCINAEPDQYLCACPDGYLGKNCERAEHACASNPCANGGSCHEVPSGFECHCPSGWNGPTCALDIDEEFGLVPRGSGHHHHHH
The assay can be described thus: SPR (BIAcore-3000), IgG captured, Jag DSL-EGF1-4 as analyte. A general note: Surface plasmon resonance follows binding to a sensor surface in real time, without labels.

Procedure for Human Jag1-DSL-EGF1-4: (§1) Binding affinities of anti-Jagged1 phage antibodies were measured by Surface Plasmon Resonance (SRP) using a BIAcore™-3000 instrument. Anti-Jagged1/2 phage human IgGs were captured by mouse anti-human IgG coated on the CM5 sensor chip to achieve approximately 150 response units (RU). […] Association rates (kₒₙ) and dissociation rates (koff) were calculated using a simple one-to-one Langmuir binding model (BIAcore Evaluation Software version 3.2). The equilibrium dissociation constant (kd) was calculated as the ratio koff/kₒₙ.
Procedure for Murine Jag2-DSL-EGF1-4: as §1

B1: Antibody A (antibody, human IgG1, V domains shown)
VH: EVQLVESGGGLVQPGGSLRLSCAASGFTFSNYGIHWVRQAPGKGLEWVGWITPDGGYTDYADSVKGRFTISADTSKNTAYLQMNSLRAEDTAVYYCARAGSWFAYWGQGTLVTVSS
VL: DIQMTQSPSSLSASVGDRVTITCRASQDVSTAVAWYQQKPGKAPKLLIYSASFLYSGVPSRFSGSGSGTDFTLTISSLQPEDFATYYCQQSYTTPPTFGQGTKVEIK
notes: Only the variable domains are tied to the tested antibody; also called parent antibody A; anti-Jagged1 antibody A
For B1, in the assay with Human Jag1-DSL-EGF1-4, the dissociation constant (Kd) amounted to 94 nM, the dissociation rate constant (koff) stood at 0.0021 s⁻¹ and the kon came to 23000 M⁻¹ s⁻¹. Also, in the assay with Human Jag2-DSL-EGF1-4, the binding result was “no binding”. In addition, in the assay with Murine Jag1-DSL-EGF1-4, the binding result is reported as “binds”. Also, the binding result with Murine Jag2-DSL-EGF1-4 is reported as “no binding (tested: 0.5 µM)”.
